# Assay results: US20020081638
# Several values for one entry are separate records, joined by “and”; a condition that tells them apart may be missing. Identical values can stand only once.
# B1: (myc)3-SUV39H1 (aa 3-412), triple myc-tagged full-length human SUV39H1 (protein)
# chain: ENLKGCSVCCKSSWNQLQDLCRLAKLSCPALGISKRNLYDFEVEYLCDYKKIREQEYYLVKWRGYPDSESTWEPRQNLKCVRILKQFHKDLERELLRRHHRSKTPRHLDPSLANYLVQKAKQRRALRRWEQELNAKRSHLGRITVENEVDLDGPPRAFVYINEYRVGEGITLNQVAVGCECQDCLWAPTGGCCPGASLHKFAYNDQGQVRLRAGLPIYECNSRCRCGYDCPNRVVQKGIRYDLCIFRTDDGRGWGVRTLEKIRKNSFVMEYVGEIITSEEAERRGQIYDRQGATYLFDLDYVEDVYTVDAAYYGNISHFVNHSCDPNLQVYNVFIDNLDERLPRIAFFATRTIRAGEELTFDYNMQVDPVDMESTRMDSNFGLAGLPGSPKKRVRIECKCGTESCRKYLF
# B2: GST-Suv39h1(7-221), murine (protein)
# chain: GCSVCCKSSWNQLQDLCRLAKLSCPALGVSKKNLYDFEVEYLCDYKKIREQEYYLVKWRGYPDSENTWEPRQNLKCIRVLKQFHKDLERELVRRHRRSKPPRHLDPNLANYLVQKAKQRRALQRWEQELNAKRSHLGRITVENEVDLDGPPRSFVYINEYRVGEGITLNQVAVGCECQDCLLAPTGGCCPGASLHKFAYNDQGQVRLKAGQPIYE
# B3: (myc)3-Nchromo (aa 3-118), C-terminally truncated human SUV39H1 (protein)
# chain: ENLKGCSVCCKSSWNQLQDLCRLAKLSCPALGISKRNLYDFEVEYLCDYKKIREQEYYLVKWRGYPDSESTWEPRQNLKCVRILKQFHKDLERELLRRHHRSKTPRHLDPSLANYL
# B4: GST-CLR4(127-490), S. pombe (protein)
# chain: KQSTALTTNDTSIILDDSLHTNSKKLGKTRNEVKEESQKRELVSNSIKEATSPKTSSILTKPRNPSKLDSYTHLSFYEKRELFRKKLREIEGPEVTLVNEVDDEPCPSLDFQFISQYRLTQGVIPPDPNFQSGCNCSSLGGCDLNNPSRCECLDDLDEPTHFAYDAQGRVRADTGAVIYECNSFCSCSMECPNRVVQRGRTLPLEIFKTKEKGWGVRSLRFAPAGTFITCYLGEVITSAEAAKRDKNYDDDGITYLFDLDMFDDASEYTVDAQNYGDVSRFFNHSCSPNIAIYSAVRNHGFRTIYDLAFFAIKDIQPLEELTFDYAGAKDFSPVQSQKSQQNRISKLRRQCKCGSANCRGWLFG
# B5: GST-Suv39h1(82-412), murine (protein)
# chain: CIRVLKQFHKDLERELVRRHRRSKPPRHLDPNLANYLVQKAKQRRALQRWEQELNAKRSHLGRITVENEVDLDGPPRSFVYINEYRVGEGITLNQVAVGCECQDCLLAPTGGCCPGASLHKFAYNDQGQVRLKAGQPIYECNSRCCCGYDCPNRVVQKGIRYDLCIFRTNDGRGWGVRTLEKIRKNSFVMEYVGEIITSEEAERRGQIYDRQGATYLFDLDYVEDVYTVDAAYYGNISHFVNHSCDPNLQVYNVFIDNLDERLPRIAFFATRTIWAGEELTFDYNMQVDPVDMESTRMDSNFGLAGLPGSPKKRVRIECKCGTTACRKYLF
# Columns and labels:
# [1] = biological target: histone H3
# [2] = biological target: free histones (mixture of H1, H3, H2B, H2A and H4; Boehringer Mannheim)
# [3] = biological target: wild-type N-terminus of human histone H3 peptide (aa 1-20)
# [4] = biological target: N-terminus of rat macro-H2A peptide
# [5] = biological target: mutant H3 (K9L) N-terminal peptide
# [6] = biological target: histone H4
# [7] = biological target: histone H2A
# [8] = biological target: N-terminus of human CENP-A peptide
# [9] = biological target: histone H1
# [10] = biological target: insulin (Sigma)
# [11] = biological target: histone H2B
protein,measurement,setting,value
B1,"in vitro HMTase assay, fluorography of 14C-methyl label",[1],indicating selective transfer of the methyl-label to H3
B2,"in vitro HMTase assay, fluorography of 14C-methyl label",[2],"a purified GST-product comprising aa 7-221 proved negative, even at higher protein concentrations"
B3,"in vitro HMTase assay, fluorography of 14C-methyl label",[2],no signals were detected with extracts from a HeLa cell line that expresses only the N-terminal third of SUV39H1 (aa 3-118)
B4,"in vitro HMTase assay with free histones, activity against recombinant SUV39H1 product",[2],3 fold and 5 fold
B5,3H-incorporation of individual amino acids by microsequencing of the in vitro methylated peptide,[3],The results confirmed selective transfer of methyl-label to lysine 9
same,"in vitro methylation of peptides, SDS-PAGE and fluorography",[3],These in vitro assays revealed selective methylation of the wild-type H3 peptide
same,"in vitro methylation of peptides, SDS-PAGE and fluorography",[4],"no signals were detected with the CENP-A or macroH2A peptides, or with insulin"
same,"in vitro methylation of peptides, SDS-PAGE and fluorography",[5],the mutated H3 (K9L) peptide was not a substrate
same,"in vitro methylation of individual histones, fluorography",[6],"no signals are detected with H2A, H2B or H4"
same,"in vitro methylation of individual histones, fluorography",[7],"no signals are detected with H2A, H2B or H4"
same,"in vitro methylation of peptides, SDS-PAGE and fluorography",[8],"no signals were detected with the CENP-A or macroH2A peptides, or with insulin"
same,"in vitro methylation of individual histones, fluorography",[9],A weak signal is present if H1 was used as the sole substrate
same,"in vitro methylation of peptides, SDS-PAGE and fluorography",[10],"no signals were detected with the CENP-A or macroH2A peptides, or with insulin"
same,"in vitro methylation of individual histones, fluorography",[1],H3 is specifically methylated by GST-Suv39h1(82-412)
same,"in vitro HMTase assay, fluorography of 14C-methyl label",[2],A purified GST-product comprising aa 82-412 maintained HMTase activity (although at a reduced level as compared to transfected SUV39H1)
same,"in vitro methylation of individual histones, fluorography",[11],"no signals are detected with H2A, H2B or H4"
